Data: patent publication US20190218261A1, “TARGETED ENHANCED DNA DEMETHYLATION” (The Jackson Laboratory, priority 2016, published 2019)
Substitutions are numbered along the chain they refer to. Names may count otherwise.

Assays:
[1] = system: CpGs of the hMLH1 promoter region; experiment: Bisulfite conversion and sequencing of hMLH1 promoter; type: cell-based, human; conditions: HEK293T; Casilio-ME days 3-6 post transfection; AzaC treatment for 6 days
Text: Casilio-mediated delivery of demethylation enzymes alters methylation state of targeted genomic locus. Evidence that the shown Casilio-ME-induced activation of hMLH1 transcription is a result of TET1-mediated cytosine demethylation within the targeted promoter region came from DNA sequencing of hMLH1 promoter after bisulfite conversion. Bisulfite treatment of genomic DNA deaminates unmethylated cytosines to produce uracils that are subsequently replicated as thymine. However, methylated cytosines are protected from conversion to uracils, thus allowing one to determine cytosine methylation states at single-nucleotide resolution by direct sequencing.
To assess changes in methylation states of CpG island within hMLH1 promoter region after Casilio-ME-mediated transcription activation, time course experiment were carried out where cells were collected 3, 4, 5, and 6 days post transfection, for analysis of cytosine methylation as well as transcription activation, and protein expression. HEK293T were transfected with Casilio-ME components that includes Ct-fusion PUFa-TET1 effector and a combination of 2 sgRNAs (RNA guides 3 and 7).
Bisulfite conversion and sequencing. Genomic DNAs were extracted using all AllPrep DNA/RNA/Protein Mini Kit according the manufacturer's instructions (Qiagen). […]

[2] = system: 5′-UGUGUGUG-3′ RNA (SEQ ID NO:13); conditions: cited from earlier work
[3] = system: SOX2 gene expression (SOX2 promoter) in HEK293T cells; experiment: SOX2 expression by quantitative reverse-transcription PCR after Dnmt effector targeting; type: cell-based; conditions: guides targeting SOX2 promoter, compared to direct dCas9 fusions
Method: Establishment of a dCas9-expressing cell line. The day prior to transfection, Lenti-X 293T cells were seeded into 6-well plates at 1.2 million cells per well. The cells were transfected with the supercoiled packaging plasmids (pLP1 (gag/pol), pLP2 (rev), and VSV-G (envelope)) and a dCas9 lentiviral expression plasmid through Lipofectamine 3000 reagent (Invitrogen). At 6 h posttransfection, medium was exchanged for fresh. At 24 h posttransfection, 2 ml of medium containing the lentivirus were collected and centrifuged for 10 minutes at 2,000 rpm to remove cellular debris. The supernatant was filtered utilizing a […] pore filter (Millipore), and the lentivirus was frozen at −80° C. until needed. HEK293T cells, seeded into a 12-well plate at 150,000 cells per well, were transduced with 500 μl of the dCas9 lentivirus in culture medium supplemented with 5 μg/ml polybrene for 12 hours, and subsequently selected with Blasticidin antibiotics on the third day post transduction.
Transfection. HEK293T, and HEK293T/dCas9 cell lines were seeded into 12-well plates at 150,000 cells per well. […] At 3 day post-transfection, the cells were sorted for GFP (sgRNA expression constructs are marked by GFP) with fluorescence-activated cell sorting (FACS) and re-plated into 12 or 24-well plates.
Quantitative reverse-transcription PCR. […]

[4] = system: TetO::tdTomato transgene in HEK293T/TetO::tdTomato cell line; experiment: TetO::tdTomato transgene activation measured by FACS; type: cell-based; conditions: for transgene activation with higher PBS copy numbers: 15, 20, and 47 copies of PBS
Text: In particular, to test whether appending PBS to the 3′ end of sgRNA affects sgRNA function, a series of modified Tet-targeting (sgTetO) or non-targeting control (sgControl) sgRNA were generated, […] domain-binding sequence (PBS) for PUF (3-2) (also simply referred to as PUFa) [PBS32 or PBSa: SEQ ID NO:8 (5′-UGUAUgUA-3′)], PUF(6-2/7-2) (also simply referred to as PUFb) [PBS6272 or PBSb: SEQ ID NO:9 (5′-UugAUAUA-3′)].
Cells were transfected with dCas9-VP64 with the different sgRNA scaffolds, and were analyzed by fluorescent-activated cell sorting (FACS) two days after transfection (FIG. 1B).
Cell Culture for Experiments. HEK293T cells were cultivated in Dulbecco's modified Eagle's medium (DMEM)(Sigma) with 10% fetal bovine serum (FBS)(Lonza), 4% Glutamax (Gibco), 1% Sodium Pyruvate (Gibco) and penicillin-streptomycin (Gibco). Incubator conditions were 37° C. and 5% CO2. For activation experiments, cells were seeded into 12-well plates at 100,000 cells per well the day before being transfected with 200 ng of dCas9 construct, 100 ng of modified sgRNA and 100 ng of PUF-fusion with Attractene transfection reagent (Qiagen). After transfection, cells were grown for 48 hrs and harvested for either RNA extraction or fluorescent-activated cell sorting (FACS). For dual activation-repression experiments, transfection remained the same, however cells were seeded into 12-well plates at 150,000 cells per well and were grown for 72 hrs before being harvested for FACS. For experiments with OCT4 and SOX2 dual activation-repression, cells were triple-sorted by BFP (for the activator-repressor module PUFb-p65HSF1/BFPKRAB-PUFa), mCherry (for dCas9mCherry) and GFP (for the sgRNA-PBS on vectors co-expressing EGFP) before RNA extraction. […]
Fluorescent-Activated Cell Sorting. […] Samples were analyzed on a FACScalibur flow cytometer using CellQuest Pro software (BD Bioscience). […] were collected in each run.

Molecule: Nc1ncn([C@@H]2O[C@H](CO)[C@@H](O)[C@H]2O)c(=O)n1 [5′azacytidine, 5-Azacytidine]
- frequency of bisulfite conversion (cytosine demethylation) at CpGs of hMLH1 promoter [1]: increased bisulfite conversion frequency on multiple CpG sites within the promoter region

B1: PUF^531: PUF domain with mutations Q867E/Q939E/C935S/Q1011E/C1007S; SEQ ID NO:22 (protein)
chain: GRSRLLEDFRNNRYPNLQLREIAGHIMEFSQDQHGSRFIELKLERATPAERQLVFNEILQAAYQLMVDVFGNYVIQKFFEFGSLEQKLALAERIRGHVLSLALQMYGSRVIEKALEFIPSDQQNEMVRELDGHVLKCVKDQNGNHVVQKCIECVQPQSLQFIIDAFKGQVFALSTHPYGSRVIERILEHCLPDQTLPILEELHQHTEQLVQDQYGNYVIQHVLEHGRPEDKSKIVAEIRGNVLVLSQHKFASNVVEKCVTHASRTERAVLIDEVCTMNDGPHSALYTMMKDQYANYVVQKMIDVAEPGQRKIVMHKIRPHIATLRKYTYGKHILAKLEKYYMKNGVDLG
- affinity for new target RNA sequence compared to wild type PUF RNA [2]: very high affinity

B2: Dnmt3a-PUF: Dnmt3a catalytic region fused to N-terminus of PUFa; SEQ ID NO:65 (protein)
chain: MGPANHDQEFDPPKVYPPVPAEKRKPIRVLSLFDGIATGLLVLKDLGIQVDRYIASEVCEDSITVGMVRHQGKIMYVGDVRSVTQKHIQEWGPFDLVIGGSPCNDLSIVNPARKGLYEGTGRLFFEFYRLLHDARPKEGDDRPFFWLFENVVAMGVSDKRDISRFLESNPVMIDAKEVSAAHRARYFWGNLPGMNRPLASTVNDKLELQECLEHGRIAKFSKVRTITTRSNSIKQGKDQHFPVFMNEKEDILWCTEMERVFGFPVHYTDVSNMSRLARQRLLGRSWSVPVIRHLFAPLKEYFACVIDGGGGSDPKKKRKVDPKKKRKVDPKKKRKVGSTGSRNDGGGGSGGGGSGGGGSGRAGILPPKKKRKVSRGRSRLLEDFRNNRYPNLQLREIAGHIMEFSQDQHGSRFIQLKLERATPAERQLVFNEILQAAYQLMVDVFGNYVIQKFFEFGSLEQKLALAERIRGHVLSLALQMYGSRVIEKALEFIPSDQQNEMVRELDGHVLKCVKDQNGNHVVQKCIECVQPQSLQFIIDAFKGQVFALSTHPYGCRVIQRILEHCLPDQTLPILEELHQHTEQLVQDQYGNYVIQHVLEHGRPEDKSKIVAEIRGNVLVLSQHKFASNVVEKCVTHASRTERAVLIDEVCTMNDGPHSALYTMMKDQYANYVVQKMIDVAEPGQRKIVMHKIRPHIATLRKYTYGKHILAKLEKYYMKNGVDLGDPKKKRKVDPKKKRKVGGRGGGGSGGGGSGGGGSGPA
- repression of SOX2 gene expression [3]: more robust repression of SOX2 gene expression compared to direct fusions

B3: PUFa-VP64: NLS-PUFa-VP64 fusion; SEQ ID NO:32 (protein)
chain: MGILPPKKKRKVSRGRSRLLEDFRNNRYPNLQLREIAGHIMEFSQDQHGSRFIQLKLERATPAERQLVFNEILQAAYQLMVDVFGNYVIQKFFEFGSLEQKLALAERIRGHVLSLALQMYGSRVIEKALEFIPSDQQNEMVRELDGHVLKCVKDQNGNHVVQKCIECVQPQSLQFIIDAFKGQVFALSTHPYGCRVIQRILEHCLPDQTLPILEELHQHTEQLVQDQYGNYVIQHVLEHGRPEDKSKIVAEIRGNVLVLSQHKFASNVVEKCVTHASRTERAVLIDEVCTMNDGPHSALYTMMKDQYANYVVQKMIDVAEPGQRKIVMHKIRPHIATLRKYTYGKHILAKLEKYYMKNGVDLGGPAGSGRADALDDFDLDMLGSDALDDFDLDMLGSDALDDFDLDMLGSDALDDFDLDMLYID
- transgene activation with higher PBS copy numbers [4]: slightly lower, albeit still substantial transgene activation
- activation of TetO::tdTomato with only one PBSa ([4]; sgRNA with one PBSa): not observed

B4: PUFb-VP64: NLS-PUFb-VP64 fusion; SEQ ID NO:33 (protein)
chain: B3 chain with S122C, E126Q, N230S, Q234E, S266N, E270Q
- transgene activation with higher PBS copy numbers [4]: slightly lower, albeit still substantial transgene activation
